# Experimental data reported in patent US20050287638A1.
# Biological target: recombinant 190 kDa hHARE expressed in Flp-In 293 cells (human)
substance,measurement,value
mouse IgG (polyclonal serum or antibody),endocytosis of ^125I-HA by 190hHARE Flp-In 293 cell lines at 37° C. (% of the control value),103
